T1: IL10Rα/IL2Rγ receptor (human, UniProt Q13651 22-578; P31785 23-369)
T1 sequence (looked up) 1: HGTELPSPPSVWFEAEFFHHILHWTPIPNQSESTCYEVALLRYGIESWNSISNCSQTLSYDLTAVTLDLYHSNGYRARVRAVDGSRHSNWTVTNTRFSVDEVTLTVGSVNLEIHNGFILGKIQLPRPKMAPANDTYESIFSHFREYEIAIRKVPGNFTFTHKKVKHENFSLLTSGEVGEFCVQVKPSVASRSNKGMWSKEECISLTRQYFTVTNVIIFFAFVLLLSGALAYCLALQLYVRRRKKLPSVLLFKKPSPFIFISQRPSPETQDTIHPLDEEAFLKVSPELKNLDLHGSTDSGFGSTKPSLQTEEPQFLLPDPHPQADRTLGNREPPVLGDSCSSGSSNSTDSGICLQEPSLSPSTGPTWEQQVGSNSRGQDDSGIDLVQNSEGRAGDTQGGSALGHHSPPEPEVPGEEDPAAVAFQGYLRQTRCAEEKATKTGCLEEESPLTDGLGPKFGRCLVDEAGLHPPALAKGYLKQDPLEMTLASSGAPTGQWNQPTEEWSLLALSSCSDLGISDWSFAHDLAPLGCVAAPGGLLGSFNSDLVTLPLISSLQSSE
T1 sequence (looked up) 2: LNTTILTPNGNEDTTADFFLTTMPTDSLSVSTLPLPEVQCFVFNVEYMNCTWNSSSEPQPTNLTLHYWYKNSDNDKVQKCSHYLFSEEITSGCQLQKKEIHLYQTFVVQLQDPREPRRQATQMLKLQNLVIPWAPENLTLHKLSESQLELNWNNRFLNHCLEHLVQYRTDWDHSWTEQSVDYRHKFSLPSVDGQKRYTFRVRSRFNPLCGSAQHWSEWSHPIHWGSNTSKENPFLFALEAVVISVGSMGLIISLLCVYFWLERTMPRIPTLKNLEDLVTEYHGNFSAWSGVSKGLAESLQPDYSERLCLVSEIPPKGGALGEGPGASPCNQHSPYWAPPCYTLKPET

B1: DR471(DR241-DR231) (bispecific antibody)
chain: QVQLQESGGGSVQAGGSLRLSCAASGYSNCSYDMTWYRQAPGKEREFVSAIHSDGSTRYADSVKGRFFISQDNAKNTVYLQMNSLKPEDTAMYYCKTDPLHCRAHGGSWYSVRANYWGQGTQVTVSSGGGSQVQLQESGGGSVQAGGSLRLSCTASGFTFDDREMNWYRQAPGNECELVSTISSDGSTYYADSVKGRFTISQDNAKNTVYLQMDSVKPEDTAVYYCAADFMIAIQAPGAGCWGQGTQVTVSSASHHHHHH
B2: DR395(DR229-DR239) (bispecific antibody)
chain: QVQLQESGGGLVQPGGSLRLSCTASGFSFSSYPMTWARQAPGKGLEWVSTIASDGGSTAYAASVEGRFTISRDNAKSTLYLQLNSLKTEDTAMYYCTKGYGDGTPAPGQGTQVTVSSGGGSQVQLQESGGGSVQAGGSLRLSCTVSGYTYSSNCMGWFRQAPGKEREGVATIYTGGGNTYYADSVKGRFTISQDNAKNTVYLQMNNLKPEDTAMYYCAAEPLSRVYGGSCPTPTFDYWGQGTQVTVSSASHHHHHH

Assays:
Test in all cases: cell-based or functional assay
IL10Rα/IL2Rγ receptor [1] = biological target: T1, IL10Rα/IL2Rγ receptor
IL10Rα/IL2Rγ receptor [2] = biological target: T1, IL10Rα/IL2Rγ receptor; remark: listed apart in the source
IL10Rα/IL2Rγ receptor [3] = biological target: T1, IL10Rα/IL2Rγ receptor; remark: listed apart in the source
IL10Rα/IL2Rγ receptor [4] = biological target: T1, IL10Rα/IL2Rγ receptor; remark: listed apart in the source
IL10Rα/IL2Rγ receptor [5] = biological target: T1, IL10Rα/IL2Rγ receptor; remark: listed apart in the source
IL10Rα/IL2Rγ receptor [6] = biological target: T1, IL10Rα/IL2Rγ receptor; remark: listed apart in the source

| Binder | pSTAT3 MFI, B cells, 100 nM (unstimulated 1045) (IL10Rα/IL2Rγ receptor [1]) [MFI] | pSTAT3 MFI, CD4+ T cells, 100 nM (unstimulated 1778) (IL10Rα/IL2Rγ receptor [1]) [MFI] | pSTAT3 MFI, CD8+ T cells, 100 nM (unstimulated 1288) (IL10Rα/IL2Rγ receptor [1]) [MFI] | pSTAT3 MFI, Monocytes, 100 nM (unstimulated 1787) (IL10Rα/IL2Rγ receptor [1]) [MFI] | pSTAT3 MFI, NK cells, 100 nM (unstimulated 1149) (IL10Rα/IL2Rγ receptor [1]) [MFI] | pSTAT3 MFI, B cells, 0.0001 nM (unstimulated 1193.5) (IL10Rα/IL2Rγ receptor [2]) [MFI] | pSTAT3 MFI, B cells, 0.001 nM (unstimulated 1193.5) (IL10Rα/IL2Rγ receptor [2]) [MFI] | pSTAT3 MFI, B cells, 0.01 nM (unstimulated 1193.5) (IL10Rα/IL2Rγ receptor [2]) [MFI] | pSTAT3 MFI, B cells, 0.1 nM (unstimulated 1193.5) (IL10Rα/IL2Rγ receptor [2]) [MFI] | pSTAT3 MFI, B cells, 1 nM (unstimulated 1193.5) (IL10Rα/IL2Rγ receptor [2]) [MFI] | pSTAT3 MFI, B cells, 10 nM (unstimulated 1193.5) (IL10Rα/IL2Rγ receptor [2]) [MFI] | pSTAT3 MFI, B cells, 100 nM (unstimulated 1193.5) (IL10Rα/IL2Rγ receptor [2]) [MFI] | pSTAT3 MFI, CD4 T cells, 0.0001 nM (unstimulated 1887) (IL10Rα/IL2Rγ receptor [3]) [MFI] | pSTAT3 MFI, CD4 T cells, 0.001 nM (unstimulated 1887) (IL10Rα/IL2Rγ receptor [3]) [MFI] | pSTAT3 MFI, CD4 T cells, 0.01 nM (unstimulated 1887) (IL10Rα/IL2Rγ receptor [3]) [MFI] | pSTAT3 MFI, CD4 T cells, 0.1 nM (unstimulated 1887) (IL10Rα/IL2Rγ receptor [3]) [MFI] | pSTAT3 MFI, CD4 T cells, 1 nM (unstimulated 1887) (IL10Rα/IL2Rγ receptor [3]) [MFI] | pSTAT3 MFI, CD4 T cells, 10 nM (unstimulated 1887) (IL10Rα/IL2Rγ receptor [3]) [MFI] | pSTAT3 MFI, CD4 T cells, 100 nM (unstimulated 1887) (IL10Rα/IL2Rγ receptor [3]) [MFI] | pSTAT3 MFI, NK cells, 0.0001 nM (unstimulated 1315) (IL10Rα/IL2Rγ receptor [4]) [MFI] | also measured |
| --- | --- | --- | --- | --- | --- | --- | --- | --- | --- | --- | --- | --- | --- | --- | --- | --- | --- | --- | --- | --- | --- |
| B1 | 1140 | 6240 | 4220 | 1940 | 1700 | 1110 | 1120 | 1110 | 1110 | 1170 | 1340 | 1280 | 1800 | 1860 | 1860 | 2250 | 4600 | 6800 | 6200 | 1230 | pSTAT3 MFI, NK cells, 0.001 nM (unstimulated 1315) (IL10Rα/IL2Rγ receptor [4]): 1260 MFI; pSTAT3 MFI, NK cells, 0.01 nM (unstimulated 1315) (IL10Rα/IL2Rγ receptor [4]): 1250 MFI; pSTAT3 MFI, NK cells, 0.1 nM (unstimulated 1315) (IL10Rα/IL2Rγ receptor [4]): 1260 MFI; pSTAT3 MFI, NK cells, 1 nM (unstimulated 1315) (IL10Rα/IL2Rγ receptor [4]): 1530 MFI; pSTAT3 MFI, NK cells, 10 nM (unstimulated 1315) (IL10Rα/IL2Rγ receptor [4]): 2000 MFI; pSTAT3 MFI, NK cells, 100 nM (unstimulated 1315) (IL10Rα/IL2Rγ receptor [4]): 1940 MFI; pSTAT3 MFI, CD8 T cells, 0.0001 nM (unstimulated 1446) (IL10Rα/IL2Rγ receptor [5]): 1400 MFI; pSTAT3 MFI, CD8 T cells, 0.001 nM (unstimulated 1446) (IL10Rα/IL2Rγ receptor [5]): 1420 MFI; pSTAT3 MFI, CD8 T cells, 0.01 nM (unstimulated 1446) (IL10Rα/IL2Rγ receptor [5]): 1420 MFI; pSTAT3 MFI, CD8 T cells, 0.1 nM (unstimulated 1446) (IL10Rα/IL2Rγ receptor [5]): 1640 MFI; pSTAT3 MFI, CD8 T cells, 1 nM (unstimulated 1446) (IL10Rα/IL2Rγ receptor [5]): 3280 MFI; pSTAT3 MFI, CD8 T cells, 10 nM (unstimulated 1446) (IL10Rα/IL2Rγ receptor [5]): 4610 MFI; pSTAT3 MFI, CD8 T cells, 100 nM (unstimulated 1446) (IL10Rα/IL2Rγ receptor [5]): 4400 MFI; pSTAT3 MFI, Monocytes, 0.0001 nM (unstimulated 2116) (IL10Rα/IL2Rγ receptor [6]): 2010 MFI; pSTAT3 MFI, Monocytes, 0.001 nM (unstimulated 2116) (IL10Rα/IL2Rγ receptor [6]): 2030 MFI; pSTAT3 MFI, Monocytes, 0.01 nM (unstimulated 2116) (IL10Rα/IL2Rγ receptor [6]): 2000 MFI; pSTAT3 MFI, Monocytes, 0.1 nM (unstimulated 2116) (IL10Rα/IL2Rγ receptor [6]): 1990 MFI; pSTAT3 MFI, Monocytes, 1 nM (unstimulated 2116) (IL10Rα/IL2Rγ receptor [6]): 2030 MFI; pSTAT3 MFI, Monocytes, 10 nM (unstimulated 2116) (IL10Rα/IL2Rγ receptor [6]): 2230 MFI; pSTAT3 MFI, Monocytes, 100 nM (unstimulated 2116) (IL10Rα/IL2Rγ receptor [6]): 2210 MFI |
| B2 | 1030 | 3570 | 2700 | 2020 | 1430 | 1130 | 1130 | 1140 | 1150 | 1260 | 1340 | 1360 | 1800 | 1870 | 1890 | 2450 | 4570 | 5180 | 4670 | 1260 | pSTAT3 MFI, NK cells, 0.001 nM (unstimulated 1315) (IL10Rα/IL2Rγ receptor [4]): 1270 MFI; pSTAT3 MFI, NK cells, 0.01 nM (unstimulated 1315) (IL10Rα/IL2Rγ receptor [4]): 1260 MFI; pSTAT3 MFI, NK cells, 0.1 nM (unstimulated 1315) (IL10Rα/IL2Rγ receptor [4]): 1310 MFI; pSTAT3 MFI, NK cells, 1 nM (unstimulated 1315) (IL10Rα/IL2Rγ receptor [4]): 1640 MFI; pSTAT3 MFI, NK cells, 10 nM (unstimulated 1315) (IL10Rα/IL2Rγ receptor [4]): 1800 MFI; pSTAT3 MFI, NK cells, 100 nM (unstimulated 1315) (IL10Rα/IL2Rγ receptor [4]): 1760 MFI; pSTAT3 MFI, CD8 T cells, 0.0001 nM (unstimulated 1446) (IL10Rα/IL2Rγ receptor [5]): 1380 MFI; pSTAT3 MFI, CD8 T cells, 0.001 nM (unstimulated 1446) (IL10Rα/IL2Rγ receptor [5]): 1420 MFI; pSTAT3 MFI, CD8 T cells, 0.01 nM (unstimulated 1446) (IL10Rα/IL2Rγ receptor [5]): 1400 MFI; pSTAT3 MFI, CD8 T cells, 0.1 nM (unstimulated 1446) (IL10Rα/IL2Rγ receptor [5]): 1800 MFI; pSTAT3 MFI, CD8 T cells, 1 nM (unstimulated 1446) (IL10Rα/IL2Rγ receptor [5]): 3320 MFI; pSTAT3 MFI, CD8 T cells, 10 nM (unstimulated 1446) (IL10Rα/IL2Rγ receptor [5]): 3880 MFI; pSTAT3 MFI, CD8 T cells, 100 nM (unstimulated 1446) (IL10Rα/IL2Rγ receptor [5]): 3450 MFI; pSTAT3 MFI, Monocytes, 0.0001 nM (unstimulated 2116) (IL10Rα/IL2Rγ receptor [6]): 2060 MFI; pSTAT3 MFI, Monocytes, 0.001 nM (unstimulated 2116) (IL10Rα/IL2Rγ receptor [6]): 2060 MFI; pSTAT3 MFI, Monocytes, 0.01 nM (unstimulated 2116) (IL10Rα/IL2Rγ receptor [6]): 2020 MFI; pSTAT3 MFI, Monocytes, 0.1 nM (unstimulated 2116) (IL10Rα/IL2Rγ receptor [6]): 2020 MFI; pSTAT3 MFI, Monocytes, 1 nM (unstimulated 2116) (IL10Rα/IL2Rγ receptor [6]): 2210 MFI; pSTAT3 MFI, Monocytes, 10 nM (unstimulated 2116) (IL10Rα/IL2Rγ receptor [6]): 2340 MFI; pSTAT3 MFI, Monocytes, 100 nM (unstimulated 2116) (IL10Rα/IL2Rγ receptor [6]): 2440 MFI |

Source: patent US20250163162A1 (SYNTHEKINE, published 2025)
